Results taken from ChEMBL document CHEMBL1130856, “A new series of cyclic amino acids as inhibitors of S-adenosyl L-methionine synthetase” (Bioorg Med Chem Lett, 1998).

Test system: CSCC[C@H](N)C(=O)O
Description: Compound was evaluated for its inhibitory activity against recombinant S-adenosyl L-Methionine synthetase (alpha-isoform) in rat liver

S-adenosylmethionine synthase isoform type-1 (Rattus norvegicus), P13444, sequence (P13444 whole entry, canonical isoform): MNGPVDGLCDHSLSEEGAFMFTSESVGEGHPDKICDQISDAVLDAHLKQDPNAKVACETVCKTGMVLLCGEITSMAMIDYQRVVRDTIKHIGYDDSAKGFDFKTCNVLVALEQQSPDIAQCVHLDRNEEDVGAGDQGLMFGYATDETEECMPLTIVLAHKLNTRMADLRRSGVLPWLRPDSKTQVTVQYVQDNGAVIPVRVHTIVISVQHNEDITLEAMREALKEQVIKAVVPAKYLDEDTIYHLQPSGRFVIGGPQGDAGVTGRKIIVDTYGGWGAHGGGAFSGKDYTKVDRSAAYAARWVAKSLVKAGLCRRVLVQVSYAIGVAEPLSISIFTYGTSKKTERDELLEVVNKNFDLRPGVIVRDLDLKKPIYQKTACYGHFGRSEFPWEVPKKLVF

Q: Which Km does the source give for “S-adenosylmethionine synthase isoform type-1 (Rattus norvegicus), P13444” here?
A: Its Km is 70 µM.
